Source: patent publication US20230012273A1 (Boehringer Ingelheim, published 2023)

T1: full-length cynomolgus SIRPα (EGM-02252) on CHO cells, clone H3A9 (cynomolgus monkey, UniProt A0A2K5VYQ9)
T1 construct: whole, on cells; also called EGM-02252 Clone H3A9
T1 sequence: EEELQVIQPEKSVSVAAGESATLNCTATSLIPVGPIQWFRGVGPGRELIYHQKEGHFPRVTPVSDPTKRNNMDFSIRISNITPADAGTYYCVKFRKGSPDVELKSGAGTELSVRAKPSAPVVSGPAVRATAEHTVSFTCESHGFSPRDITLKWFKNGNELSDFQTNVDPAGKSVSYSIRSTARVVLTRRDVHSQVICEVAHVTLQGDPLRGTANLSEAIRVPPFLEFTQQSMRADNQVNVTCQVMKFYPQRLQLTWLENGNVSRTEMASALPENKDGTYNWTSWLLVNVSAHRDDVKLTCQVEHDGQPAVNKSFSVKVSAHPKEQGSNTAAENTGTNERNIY

T2: full-length cynomolgus SIRPα (NP_001271679) on CHO cells, clone HC6 (cynomolgus monkey, UniProt A0A2K5VYQ9)
T2 construct: whole, on cells; also called NP_001271679 Clone HC6
T2 sequence: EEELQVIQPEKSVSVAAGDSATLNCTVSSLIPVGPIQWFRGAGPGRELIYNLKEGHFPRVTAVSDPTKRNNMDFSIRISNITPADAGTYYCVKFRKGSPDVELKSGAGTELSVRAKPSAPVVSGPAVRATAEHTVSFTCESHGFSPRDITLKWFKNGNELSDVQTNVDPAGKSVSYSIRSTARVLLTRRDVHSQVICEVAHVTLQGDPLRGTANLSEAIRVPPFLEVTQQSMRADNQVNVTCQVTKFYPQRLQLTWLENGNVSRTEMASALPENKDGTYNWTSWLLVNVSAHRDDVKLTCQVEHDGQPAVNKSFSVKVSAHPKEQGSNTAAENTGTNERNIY

B1: Antibody A (antibody, human IgG1, kappa, L234A L235A)
heavy: not shown
light: DIQMTQSPSSLSASVGDRVTITCRASQDINNYLAWFQQKPGKAPKSLIYTASSLHSGVPSKFSGSGSGTDFTLTISSLQPEDFATYYCQQYVSYPYTFGQGTKLEIKRTVAAPSVFIFPPSDEQLKSGTASVVCLLNNFYPREAKVQWKVDNALQSGNSQESVTEQDSKDSTYSLSSTLTLSKADYEKHKVYACEVTHQGLSSPVTKSFNRGEC
B2: Antibody C (antibody, human IgG1, kappa, L234A L235A, V domains shown)
VH: EVQLVESGGGLVQPGGSLRLSCAASGFTFSSYDMHWVRQATGKGLEWVSVIGIAGDTYYPGSVKGRFTISRENAKNSLYLQMNSLRVGDTAVYYCARGGSWDDAFDIWGQGTMVTVSS
VL: DIQMTQSPSSLSASIGDKVTITCRASQDINNYLAWFQQKPGKAPKSLIYTASSLQSGVPSKFSGSGSGTDFTLTISSLQPEDFATYYCQQYVSYPYTFGQGTKLEIKR
B3: Antibody A10 (antibody, human IgG1, kappa, L234A L235A)
heavy: not shown
light: DIQMTQSPSSLSASVGDRVTITCRASQDINNYLAWFQQKPGKAPKSLIYTASSLHSGVPSKFSGSGSGTDFTLTISSLQPEDFATYYCQQYVSYPYTFGQGTKLEIKRTVAAPSVFIFPPSDEQLKSGTASVVCLLNNFYPREAKVQWKVDNALQSGNSQESVTEQDSKDSTYSLSSTLTLSKADYEKHKVYACEVTHQGLSSPVTKSFNRGEC
B4: Antibody E (antibody, human IgG1, kappa, L234A L235A)
heavy: not shown
light: DIVMTQSPLSLPVTPGEPASISCKSSQSLLYSNGYNYLDWYLQRPGQSPQLLIYLGSNRASGVPDRFSGSGSGTDFTLKISRVEAEDVGVFYCMQALQTPLTFGGGTKVEIKRTVAAPSVFIFPPSDEQLKSGTASVVCLLNNFYPREAKVQWKVDNALQSGNSQESVTEQDSKDSTYSLSSTLTLSKADYEKHKVYACEVTHQGLSSPVTKSFNRGEC
B5: Antibody E22 (antibody, human IgG1, kappa, L234A L235A, V domains shown)
VH: QVQLQESGPGLVKPSETLSLTCTVSGGSIRDYYWSWIRQPPGKGLEWIGFIYYNGRTFYQSSLKSRVTISLDTSKNQFSLKMTSVTAADTAVYYCARVRAYSGIGLDGTDVWGQGTTVTVSS
VL: DIVMTQSPLSLPVTPGEPASISCRSSQSLLYSTGYTYLDWYLQRPGQSPQLLIYGGSSRASGVPDRFSGSGSGTDFTLKISRVEAEDVGVFYCGQALQTPLTFGQGTKVEIKR
B6: Anti-SIRPα antibody KWAR23 (antibody, V domains shown)
VH: EVQLQQSGAELVKPGASVKLSCTASGFNIKDYYIHWVQQRTEQGLEWIGRIDPEDGETKYAPKFQDKATITADTSSNTAYLHLSSLTSEDTAVYYCARWGAYWGQGTLVTVSS
VL: QIVLTQSPAIMSASPGEKVTLTCSASSSVSSSYLYWYQQKPGSSPKLWIYSTSNLASGVPARFSGSGSGTSYSLTISSMEAEDAASYFCHQWSSYPRTFGAGTKLELK
B7: Antibody B (antibody, human IgG1, kappa, L234A L235A, V domains shown)
VH: QVQLVQSGAEVKKPGASVKVSCKASGYTFTGNYMHWVRQAPGQGLEWMGWINPNSGGTNYAQKFQGRVTMTRDTSISTAYMELSRLRSDDTAVYYCVSGSGWYENYYYYGMDVWGQGTTVTVSS
VL: DIQMTQSPSSVSASVGDRVTITCRASQGISSWLAWYQQKPGKAPKLLIYAESSLQSGVPSRFSGSGSGTDFTLTISSLQPEDFATYYCQQANSFPLTFGGGTKVEIKR
B8: Antibody D (antibody, human IgG1, kappa, L234A L235A, V domains shown)
VH: EVQLVESGGGLVQPGGSLRLSCAASGFTFSSFDMHWVRQPTGKGLEWVSTIGIAGDTYFPGSVKGRFTISRENAKNSLYLQMNSLRAGDTAVYYCARGGNWDDALDIWGQGTMVTVSS
VL: DIQMTQSPSSLSASVGDRVTITCRASQDINNYLAWFQQKPGKAPKSLIYTASSLQSGVPSKFSGSGSGTDFTLTISSLQPEDFATYYCQQYNTYPYTFGQGTKLEIKR

What was measured:
[1] = target: T3, full-length human SIRPβ1 (NP_006056.2) on cells (human, UniProt O00241 30-398); test: flow cytometry, U937 SIRPα-KO transfectants
T3 construct: also called β1 WT
Experimental: (§1) Antibody binding to cells expressing full-length human SIRPβ1 (NP_006056.2) and SIRPβL (NP_001129316.1) is evaluated by flow cytometry. SIRPβ1- or SIRPβL-expressing U937^{SIRPα KO} cells are blocked with donkey IgG and incubated on ice with increasing concentrations of antibodies for 60 minutes, washed and stained with AF647-conjugated donkey F(ab′)₂ anti-human IgG secondary reagent. Cells are washed, fixed, and analyzed by flow cytometry. Median fluorescent intensity is determined and used as a measure of antibody binding.

[2] = target: T4, full-length human SIRPγ E→D on Expi-CHO cells (human, UniProt Q9P1W8 29-387); test: flow cytometry, Expi-CHO cells expressing full-length human SIRPγ E→D
T4 construct: the entry already carries the change (PENV to PDNV)
Experimental: Expi-CHO parental cells are transduced with lentiviruses containing either full-length wild-type human SIRPγ ([…]) or full-length human SIRPγ with amino acid point mutations (Table 64) and sorted to achieve matching expression levels. These cells are blocked with donkey IgG and incubated on ice with increasing concentrations of antibodies for 60 minutes, washed and stained with AF647-conjugated donkey F(ab′)₂ anti-human IgG antibodies. Stained cells are washed, fixed, and analyzed by flow cytometry. Median fluorescent intensity is determined and used as a measure of antibody binding.

[3] = target: T1, full-length cynomolgus SIRPα …; test: flow cytometry, CHO cells
Experimental: as §1, with “cynomolgus (cyno) SIRPα was” for “full-length human SIRPβ1 (NP_006056.2) and SIRPβL (NP_001129316.1) is”, “CHO-K1 cells expressing full-length cyno SIRPα; derived from protein sequence accession numbers (A) EGM-02252; (B) XP_015313155;” for “SIRPβ1-”, “(C) NP_001271679,” for “SIRPβL-expressing U937^{SIRPα KO} cells”

[4] = target: T2, full-length cynomolgus SIRPα …; test: flow cytometry, CHO cells
Experimental: as §1, with “cynomolgus (cyno) SIRPα was” for “full-length human SIRPβ1 (NP_006056.2) and SIRPβL (NP_001129316.1) is”, “CHO-K1 cells expressing full-length cyno SIRPα; derived from protein sequence accession numbers (A) EGM-02252; (B) XP_015313155;” for “SIRPβ1-”, “(C) NP_001271679,” for “SIRPβL-expressing U937^{SIRPα KO} cells”

[5] = target: T5, recombinant human SIRPγ extracellular domain (ECD)/His protein (NP_061026.2) (human, UniProt Q9P1W8 29-360); test: ELISA, immobilised His-tagged human SIRPγ extracellular domain (average fluorescence)
T5 construct: coated on ELISA plates; also called recombinant hSIRPγ; not shown: His-tag
Experimental: A biochemical ELISA-based assay is utilized to evaluate the binding of antibodies to SIRPγ. Black, 96-well flat-bottom immunoassay plates are coated with recombinant human SIRPγ extracellular domain (ECD)/His protein (NP_061026.2) diluted in DPBS and incubated overnight at 4° C. […] Plates are washed and serially titrated antibodies are added to respective wells for an incubation of about 1-2 h at RT. After the incubation, the plates are washed and HRPO-conjugated mouse anti-human IgG secondary reagent (Jackson Immuno Research) is added to each well and incubated for about 1-2 hours. Following the final plate washing, Amplex™ red substrate is added and incubated at RT in the dark for 15-30 minutes. Fluorescence is detected (λEx/λEm=530/590 nm) using EnVision Multilabel Plate Reader (Perkin Elmer). Average fluorescence is plotted for measuring the antibody binding.

[6] = target: T6, full-length human SIRPαV2 (CAA71403.1) on cells (human, UniProt P78324 31-504); test: flow cytometry, competition with CD47 tetramer, monocytes V2V2
T6 construct: one molecule for CHO-K1 and Expi-CHO transfectants (CAA71403.1) and for endogenous V2 on THP-1 cells and on CD14+ monocytes of V2/V2 donors; also called CHO-hSIRPαV2; αV2 WT
Experimental: Cells are washed, fixed, and analyzed by flow cytometry. Median fluorescent intensity of CD14+gated population is determined and used as a measure of CD47 binding.

[7] = target: T7, full-length human SIRPβL (NP_001129316.1) on cells (human, UniProt Q5TFQ8 30-398); test: flow cytometry, U937 SIRPα-KO transfectants
T7 construct: one molecule for U937 SIRPα-KO transfectants (NP_001129316.1) and Expi-CHO transfectants (Q5TFQ8); also called SIRPβ1v3; βL WT
Experimental: as §1

[8] = target: T7, full-length human SIRPβL …; test: flow cytometry, Expi-CHO cells
Procedure, shortened: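 Lentivirus-transduced Expi-CHO cells expressing wild-type or single point-mutant SIRPβL, sorted to matched expression, blocked with donkey IgG and incubated on ice 60 min with increasing antibody concentrations. Detection with AF647 anti-human IgG F(ab′)₂ after washing and fixation; median fluorescence intensity taken as binding.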

Binder	EC50 [1] [pM]	binding result [2]	EC50 [3] [pM]	EC50 [4] [pM]	binding result [5]	IC50 [6] [pM]	EC50 [7] [pM]	EC50 [8] [pM]
B1	200	no binding (tested: about 67 nM)	1900	4500	no binding (tested: about 67 nM)	–	–	–
B2	500	–	–	–	–	50	–	–
B3	200	no binding (tested: about 67 nM)	1500	3700	–	–	–	–
B4	–	no binding (tested: about 67 nM)	–	–	no binding (tested: about 67 nM)	–	300	1000
B5	–	no binding (tested: about 67 nM)	–	–	–	300	600	1200
B6	200	–	900	2000	–	110	200	1000
B7	–	–	–	–	no binding (tested: about 67 nM)	4600	–	–
B8	400	–	–	–	no binding (tested: about 67 nM)	50	–	–
